Experimental data: IntAct's records for PubMed 22416126

B1: Non-POU domain-containing octamer-binding protein (Homo sapiens), Q15233 (parent)
chain: MQSNKTFNLEKQNHTPRKHHQHHHQQQHHQQQQQQPPPPPIPANGQQASSQNEGLTIDLKNFRKPGEKTFTQRSRLFVGNLPPDITEEEMRKLFEKYGKAGEVFIHKDKGFGFIRLETRTLAEIAKVELDNMPLRGKQLRVRFACHSASLTVRNLPQYVSNELLEEAFSVFGQVERAVVIVDDRGRPSGKGIVEFSGKPAARKALDRCSEGSFLLTTFPRPVTVEPMDQLDDEEGLPEKLVIKNQQFHKEREQPPRFAQPGSFEYEYAMRWKALIEMEKQQQDQVDRNIKEAREKLEMEMEAARHEHQVMLMRQDLMRRQEELRRMEELHNQEVQKRKQLELRQEEERRRREEEMRRQQEEMMRRQQEGFKGTFPDAREQEIRMGQMAMGGAMGINNRGAMPPAPVPAGTPAPPGPATMMPDGTLGLTPPTTERFGQAATMEGIGAIGGTPPAFNRAAPGAEFAPNKRRRY
partner: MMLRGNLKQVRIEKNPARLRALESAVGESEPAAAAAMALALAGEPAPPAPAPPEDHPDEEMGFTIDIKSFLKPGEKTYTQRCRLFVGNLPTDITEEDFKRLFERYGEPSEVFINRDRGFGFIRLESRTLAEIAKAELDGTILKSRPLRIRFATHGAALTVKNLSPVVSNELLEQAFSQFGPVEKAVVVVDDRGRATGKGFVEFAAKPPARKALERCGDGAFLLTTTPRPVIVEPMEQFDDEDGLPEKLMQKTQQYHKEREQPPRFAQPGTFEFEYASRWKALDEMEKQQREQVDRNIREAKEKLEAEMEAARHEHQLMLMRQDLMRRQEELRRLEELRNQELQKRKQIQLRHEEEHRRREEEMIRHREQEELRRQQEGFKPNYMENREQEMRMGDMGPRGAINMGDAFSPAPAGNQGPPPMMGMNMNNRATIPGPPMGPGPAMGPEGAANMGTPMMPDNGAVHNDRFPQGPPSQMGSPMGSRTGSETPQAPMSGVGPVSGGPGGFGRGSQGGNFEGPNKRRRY
B2: Paraspeckle component 1 (Homo sapiens), Q8WXF1-1 (parent)
chain: B1 partner
partner: B1 chain

Variants of: B1
Conditions: with PSPC1, Q8WXF1-1

Variant | effect of a mutation on the interaction
Y267A;W271A | decreasing interaction strength

Variants of: B2
Conditions: with nono_human NONO

Variant | effect of a mutation on the interaction
Y275A;W279A | decreasing interaction strength
